{"source": "paper PMC7657459", "about": "“A second hybrid-binding domain modulates the activity of Drosophila ribonuclease H1”", "key": {"[1]": {"target": "T1, RNase H1 D252N (Drosophila melanogaster, UniProt A1Z769 17-333, D252N)", "T1 sequence": "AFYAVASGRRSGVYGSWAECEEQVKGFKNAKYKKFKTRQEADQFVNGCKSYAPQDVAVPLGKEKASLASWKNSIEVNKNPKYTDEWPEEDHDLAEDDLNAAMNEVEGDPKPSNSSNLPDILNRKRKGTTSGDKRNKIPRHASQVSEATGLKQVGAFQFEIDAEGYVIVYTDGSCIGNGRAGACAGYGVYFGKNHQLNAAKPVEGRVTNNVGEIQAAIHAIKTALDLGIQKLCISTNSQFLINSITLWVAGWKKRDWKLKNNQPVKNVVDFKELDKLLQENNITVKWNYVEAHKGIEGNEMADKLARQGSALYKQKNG", "assay": "EMSA; 1 or 10 uM protein; BLI: 30 mM Tris-HCl pH 8.0, 100 mM KCl, 10% glycerol, 10 mM EDTA, 2 mM DTT, 400 ug/ml BSA, 30 C; EMSA: 25 mM Tris-HCl pH 8.0, 25 mM KCl, 1 mM DTT, 10 mM EDTA, 20 ug/ml BSA, room temperature, 30 min", "conditions": "protein: recombinant; tags: C-terminal 6xHis (+2 vector residues); label: 5' 32P; single strand"}, "[2]": {"target": "T2, RNase H1 ΔIV/V (Drosophila melanogaster, UniProt A1Z769 17-142)", "T2 sequence": "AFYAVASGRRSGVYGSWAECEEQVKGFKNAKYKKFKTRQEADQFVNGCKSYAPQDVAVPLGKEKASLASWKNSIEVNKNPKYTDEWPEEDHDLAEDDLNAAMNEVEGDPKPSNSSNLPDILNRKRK", "assay": "BLI; BLI: 30 mM Tris-HCl pH 8.0, 100 mM KCl, 10% glycerol, 10 mM EDTA, 2 mM DTT, 400 ug/ml BSA, 30 C; EMSA: 25 mM Tris-HCl pH 8.0, 25 mM KCl, 1 mM DTT, 10 mM EDTA, 20 ug/ml BSA, room temperature, 30 min", "conditions": "protein: recombinant, tags: C-terminal 6xHis, blunt"}, "[3]": {"target": "T3, RNase H1 ΔIII-V (Drosophila melanogaster, UniProt A1Z769 17-87)", "T3 sequence": "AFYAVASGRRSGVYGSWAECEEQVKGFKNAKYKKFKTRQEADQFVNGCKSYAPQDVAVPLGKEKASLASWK", "assay": "BLI; BLI: 30 mM Tris-HCl pH 8.0, 100 mM KCl, 10% glycerol, 10 mM EDTA, 2 mM DTT, 400 ug/ml BSA, 30 C; EMSA: 25 mM Tris-HCl pH 8.0, 25 mM KCl, 1 mM DTT, 10 mM EDTA, 20 ug/ml BSA, room temperature, 30 min", "conditions": "protein: recombinant, tags: C-terminal 6xHis, blunt"}, "[4]": {"target": "T4, RNase H1 ΔII-V (Drosophila melanogaster, UniProt A1Z769 17-65)", "T4 chain": "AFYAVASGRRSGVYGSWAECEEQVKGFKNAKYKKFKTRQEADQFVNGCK", "assay": "BLI; BLI: 30 mM Tris-HCl pH 8.0, 100 mM KCl, 10% glycerol, 10 mM EDTA, 2 mM DTT, 400 ug/ml BSA, 30 C; EMSA: 25 mM Tris-HCl pH 8.0, 25 mM KCl, 1 mM DTT, 10 mM EDTA, 20 ug/ml BSA, room temperature, 30 min", "conditions": "protein: recombinant, tags: C-terminal 6xHis, blunt"}, "[5]": {"target": "T5, RNase H1 ΔII/III D252N (Drosophila melanogaster, UniProt A1Z769 17-333, D252N;del66-141)", "T5 sequence": "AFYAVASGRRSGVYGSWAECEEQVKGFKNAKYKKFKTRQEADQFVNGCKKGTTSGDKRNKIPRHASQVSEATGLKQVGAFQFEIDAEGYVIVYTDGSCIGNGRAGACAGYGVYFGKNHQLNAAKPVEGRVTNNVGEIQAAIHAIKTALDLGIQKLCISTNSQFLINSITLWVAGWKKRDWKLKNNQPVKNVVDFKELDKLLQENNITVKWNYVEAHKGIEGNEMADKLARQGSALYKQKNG", "assay": "EMSA; BLI: 30 mM Tris-HCl pH 8.0, 100 mM KCl, 10% glycerol, 10 mM EDTA, 2 mM DTT, 400 ug/ml BSA, 30 C; EMSA: 25 mM Tris-HCl pH 8.0, 25 mM KCl, 1 mM DTT, 10 mM EDTA, 20 ug/ml BSA, room temperature, 30 min", "conditions": "protein: recombinant, tags: C-terminal 6xHis, blunt"}, "[6]": {"target": "T1, RNase H1 D252N", "assay": "EMSA; BLI: 30 mM Tris-HCl pH 8.0, 100 mM KCl, 10% glycerol, 10 mM EDTA, 2 mM DTT, 400 ug/ml BSA, 30 C; EMSA: 25 mM Tris-HCl pH 8.0, 25 mM KCl, 1 mM DTT, 10 mM EDTA, 20 ug/ml BSA, room temperature, 30 min", "conditions": "protein: recombinant, tags: C-terminal 6xHis (+2 vector residues), blunt"}, "[7]": {"target": "Dm RNase H1 (amino acids 17-333), bacterially expressed (Drosophila melanogaster)"}, "[8]": {"target": "T6, RNase H1 ΔI-III D252N (Drosophila melanogaster, UniProt A1Z769 142-333, D252N)", "T6 sequence": "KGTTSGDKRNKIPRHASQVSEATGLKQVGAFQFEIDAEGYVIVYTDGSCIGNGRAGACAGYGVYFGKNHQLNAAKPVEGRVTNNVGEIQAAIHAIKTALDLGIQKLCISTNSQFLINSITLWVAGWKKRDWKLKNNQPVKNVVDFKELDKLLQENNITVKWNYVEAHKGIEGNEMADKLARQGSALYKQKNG", "assay": "EMSA; no supershift; BLI: 30 mM Tris-HCl pH 8.0, 100 mM KCl, 10% glycerol, 10 mM EDTA, 2 mM DTT, 400 ug/ml BSA, 30 C; EMSA: 25 mM Tris-HCl pH 8.0, 25 mM KCl, 1 mM DTT, 10 mM EDTA, 20 ug/ml BSA, room temperature, 30 min", "conditions": "protein: recombinant; tags: C-terminal 6xHis; blunt"}, "[9]": {"target": "T7, RNase H1 ΔI/II D252N (Drosophila melanogaster, UniProt A1Z769 87-333, D252N)", "T7 sequence": "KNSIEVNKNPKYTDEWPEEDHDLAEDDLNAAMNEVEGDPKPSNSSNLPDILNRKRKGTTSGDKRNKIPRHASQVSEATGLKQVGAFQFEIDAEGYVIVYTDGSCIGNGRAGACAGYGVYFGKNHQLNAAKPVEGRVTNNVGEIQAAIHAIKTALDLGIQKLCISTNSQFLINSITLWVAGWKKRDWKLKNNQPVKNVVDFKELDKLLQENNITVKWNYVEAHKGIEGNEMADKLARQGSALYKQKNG", "assay": "EMSA; no supershift; BLI: 30 mM Tris-HCl pH 8.0, 100 mM KCl, 10% glycerol, 10 mM EDTA, 2 mM DTT, 400 ug/ml BSA, 30 C; EMSA: 25 mM Tris-HCl pH 8.0, 25 mM KCl, 1 mM DTT, 10 mM EDTA, 20 ug/ml BSA, room temperature, 30 min", "conditions": "protein: recombinant; tags: C-terminal 6xHis; blunt"}, "[10]": {"target": "T2, RNase H1 ΔIV/V", "assay": "EMSA; supershift at high protein; BLI: 30 mM Tris-HCl pH 8.0, 100 mM KCl, 10% glycerol, 10 mM EDTA, 2 mM DTT, 400 ug/ml BSA, 30 C; EMSA: 25 mM Tris-HCl pH 8.0, 25 mM KCl, 1 mM DTT, 10 mM EDTA, 20 ug/ml BSA, room temperature, 30 min", "conditions": "protein: recombinant; tags: C-terminal 6xHis; blunt"}, "[11]": {"target": "T3, RNase H1 ΔIII-V", "assay": "EMSA; supershift at high protein; BLI: 30 mM Tris-HCl pH 8.0, 100 mM KCl, 10% glycerol, 10 mM EDTA, 2 mM DTT, 400 ug/ml BSA, 30 C; EMSA: 25 mM Tris-HCl pH 8.0, 25 mM KCl, 1 mM DTT, 10 mM EDTA, 20 ug/ml BSA, room temperature, 30 min", "conditions": "protein: recombinant; tags: C-terminal 6xHis; blunt"}, "[12]": {"target": "T4, RNase H1 ΔII-V", "assay": "EMSA; supershift at high protein; BLI: 30 mM Tris-HCl pH 8.0, 100 mM KCl, 10% glycerol, 10 mM EDTA, 2 mM DTT, 400 ug/ml BSA, 30 C; EMSA: 25 mM Tris-HCl pH 8.0, 25 mM KCl, 1 mM DTT, 10 mM EDTA, 20 ug/ml BSA, room temperature, 30 min", "conditions": "protein: recombinant; tags: C-terminal 6xHis; blunt"}, "[13]": {"target": "T1, RNase H1 D252N", "assay": "EMSA; second shift at high protein; BLI: 30 mM Tris-HCl pH 8.0, 100 mM KCl, 10% glycerol, 10 mM EDTA, 2 mM DTT, 400 ug/ml BSA, 30 C; EMSA: 25 mM Tris-HCl pH 8.0, 25 mM KCl, 1 mM DTT, 10 mM EDTA, 20 ug/ml BSA, room temperature, 30 min", "conditions": "protein: recombinant; tags: C-terminal 6xHis (+2 vector residues); blunt"}}, "data": [{"binder": "CGCGAAGACUAACUAUAGCGUGCCCUACUU (ssRNA)", "note": "[30-nt ssRNA]", "values": [{"measurement": "binding result", "setting": "[1]", "result": "no binding"}]}, {"binder": "30-bp dsRNA (dsRNA) RNA 1: AAGUAGGGCACGCUAUAGUUAGUCUUCGCG RNA 2: CGCGAAGACUAACUAUAGCGUGCCCUACUU", "values": [{"measurement": "binding result", "setting": "[2]; label: 5' biotin on S2 for BLI", "result": "no binding"}, {"measurement": "binding result", "setting": "[3]; label: 5' biotin on S2 for BLI", "result": "no binding"}, {"measurement": "binding result", "setting": "[4]; label: 5' biotin on S2 for BLI", "result": "no binding"}, {"measurement": "binding result", "setting": "[5]; label: 5' biotin on S2 for BLI", "result": "binds"}, {"measurement": "binding result", "setting": "[6]; label: 5' biotin on S2 for BLI", "result": "binds"}]}, {"binder": "Drosophila mitochondrial single-stranded DNA-binding protein, purified (natural protein) ATTTTAAAPAKVEKTVNTVTILGRVGADPQLRGSQEHPVVTFSVATHTNYKYENGDWAQRTDWHRVVVFKPNLRDTVLEYLKKGQRTMVQGKITYGEITDQQGNQKTSTSIIADDVLFFRDANN", "values": [{"measurement": "nuclease activity of 0.1 nM Dm RNase H1 on radiolabelled 30-bp RNA/DNA hybrid pre-incubated with mtSSB (0-500 nM), without ssDNA; densitometry", "setting": "[7]", "result": 55, "unit": "%"}]}, {"binder": "30-bp dsDNA (dsDNA) DNA 1: AAGTAGGGCACGCTATAGTTAGTCTTCGCG DNA 2: CGCGAAGACTAACTATAGCGTGCCCTACTT", "values": [{"measurement": "binding result", "setting": "[2]; label: 5' biotin on S3 for BLI", "result": "no binding"}, {"measurement": "binding result", "setting": "[3]; label: 5' biotin on S3 for BLI", "result": "no binding"}, {"measurement": "binding result", "setting": "[4]; label: 5' biotin on S3 for BLI", "result": "no binding"}, {"measurement": "binding result", "setting": "[5]; label: 5' biotin on S3 for BLI", "result": "binds"}, {"measurement": "binding result", "setting": "[6]; label: 5' biotin on S3 for BLI", "result": "binds"}]}, {"binder": "AAGTAGGGCACGCTATAGTTAGTCTTCGCG (ssDNA)", "note": "[30-nt ssDNA]", "values": [{"measurement": "binding result", "setting": "[1]", "result": "no binding"}]}, {"binder": "30-bp RNA/DNA hybrid (EMSA) (DNA:RNA) RNA: CGCGAAGACUAACUAUAGCGUGCCCUACUU DNA: AAGTAGGGCACGCTATAGTTAGTCTTCGCG", "values": [{"measurement": "binding result", "setting": "[5]", "result": "binds"}, {"measurement": "binding result", "setting": "[8]", "result": "binds"}, {"measurement": "binding result", "setting": "[9]", "result": "binds"}, {"measurement": "binding result", "setting": "[10]", "result": "binds"}, {"measurement": "binding result", "setting": "[11]", "result": "binds"}, {"measurement": "binding result", "setting": "[12]", "result": "binds"}, {"measurement": "binding result", "setting": "[13]", "result": "binds"}]}]}
